Results reported in patent US20220135701A1 (Genentech, published 2022).

T1: human MerTK on human macrophages (human, UniProt Q12866 21-999)
T1 sequence: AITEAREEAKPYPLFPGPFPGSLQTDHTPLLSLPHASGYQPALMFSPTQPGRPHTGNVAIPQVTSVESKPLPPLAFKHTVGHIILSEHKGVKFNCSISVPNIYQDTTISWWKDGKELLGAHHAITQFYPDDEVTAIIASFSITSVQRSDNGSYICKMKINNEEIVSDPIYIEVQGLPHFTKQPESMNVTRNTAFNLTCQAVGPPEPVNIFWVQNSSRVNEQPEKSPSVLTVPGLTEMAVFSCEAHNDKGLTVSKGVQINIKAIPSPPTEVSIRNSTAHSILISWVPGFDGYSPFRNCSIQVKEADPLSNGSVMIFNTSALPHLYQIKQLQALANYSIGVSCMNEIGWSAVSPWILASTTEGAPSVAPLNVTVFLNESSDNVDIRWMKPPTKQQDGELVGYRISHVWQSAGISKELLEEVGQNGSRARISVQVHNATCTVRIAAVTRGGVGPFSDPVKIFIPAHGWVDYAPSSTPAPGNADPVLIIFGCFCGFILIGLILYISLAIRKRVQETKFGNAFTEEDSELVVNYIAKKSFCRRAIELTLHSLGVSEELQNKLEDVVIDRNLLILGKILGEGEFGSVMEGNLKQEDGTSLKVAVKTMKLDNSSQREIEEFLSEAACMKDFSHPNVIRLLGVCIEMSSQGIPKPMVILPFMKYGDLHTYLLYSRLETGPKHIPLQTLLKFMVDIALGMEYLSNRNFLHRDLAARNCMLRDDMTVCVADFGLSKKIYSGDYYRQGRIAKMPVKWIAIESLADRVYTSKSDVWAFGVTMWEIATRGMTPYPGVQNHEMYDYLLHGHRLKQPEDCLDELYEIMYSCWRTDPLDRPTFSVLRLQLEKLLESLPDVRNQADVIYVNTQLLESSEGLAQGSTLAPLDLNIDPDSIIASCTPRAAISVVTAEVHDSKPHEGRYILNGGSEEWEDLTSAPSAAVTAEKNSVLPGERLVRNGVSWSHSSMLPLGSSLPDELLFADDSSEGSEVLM

T2: cynomolgus monkey MerTK (cynomolgus monkey, UniProt A0A2K5V1H9 32-505)
T2 construct: Soluble analyte in SPR; also called Cyno MerTK
T2 sequence: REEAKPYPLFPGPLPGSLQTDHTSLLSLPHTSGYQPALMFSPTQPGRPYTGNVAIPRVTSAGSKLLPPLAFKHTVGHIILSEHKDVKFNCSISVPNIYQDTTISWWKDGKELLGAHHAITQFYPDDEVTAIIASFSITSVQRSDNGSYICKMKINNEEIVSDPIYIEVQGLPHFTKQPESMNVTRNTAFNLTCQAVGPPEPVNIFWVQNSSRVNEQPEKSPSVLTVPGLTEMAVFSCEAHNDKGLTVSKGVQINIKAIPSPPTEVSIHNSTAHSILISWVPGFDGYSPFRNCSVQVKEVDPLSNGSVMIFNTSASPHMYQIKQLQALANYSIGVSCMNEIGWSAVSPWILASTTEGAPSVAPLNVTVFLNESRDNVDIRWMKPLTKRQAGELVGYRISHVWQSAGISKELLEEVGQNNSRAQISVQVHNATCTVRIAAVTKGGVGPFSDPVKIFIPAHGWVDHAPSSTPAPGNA

T3: rat MerTK (rat, UniProt P57097 23-496, limits assumed)
T3 construct: Soluble analyte in SPR
T3 sequence (looked up): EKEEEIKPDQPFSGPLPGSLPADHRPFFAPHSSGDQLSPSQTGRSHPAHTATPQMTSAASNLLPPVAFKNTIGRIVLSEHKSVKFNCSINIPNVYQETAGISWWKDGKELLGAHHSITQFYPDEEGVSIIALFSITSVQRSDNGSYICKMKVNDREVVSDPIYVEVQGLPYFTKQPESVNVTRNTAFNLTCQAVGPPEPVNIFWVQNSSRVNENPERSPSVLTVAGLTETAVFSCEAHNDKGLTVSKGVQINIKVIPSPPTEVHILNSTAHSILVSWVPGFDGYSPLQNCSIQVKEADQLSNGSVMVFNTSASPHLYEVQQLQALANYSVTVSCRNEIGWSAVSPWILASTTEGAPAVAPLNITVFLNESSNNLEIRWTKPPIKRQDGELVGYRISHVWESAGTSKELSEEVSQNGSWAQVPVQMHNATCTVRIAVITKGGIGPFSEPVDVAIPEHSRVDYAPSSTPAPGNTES

T4: mouse MerTK (mouse, UniProt Q60805 23-496)
T4 construct: also called MuMER
T4 sequence (looked up): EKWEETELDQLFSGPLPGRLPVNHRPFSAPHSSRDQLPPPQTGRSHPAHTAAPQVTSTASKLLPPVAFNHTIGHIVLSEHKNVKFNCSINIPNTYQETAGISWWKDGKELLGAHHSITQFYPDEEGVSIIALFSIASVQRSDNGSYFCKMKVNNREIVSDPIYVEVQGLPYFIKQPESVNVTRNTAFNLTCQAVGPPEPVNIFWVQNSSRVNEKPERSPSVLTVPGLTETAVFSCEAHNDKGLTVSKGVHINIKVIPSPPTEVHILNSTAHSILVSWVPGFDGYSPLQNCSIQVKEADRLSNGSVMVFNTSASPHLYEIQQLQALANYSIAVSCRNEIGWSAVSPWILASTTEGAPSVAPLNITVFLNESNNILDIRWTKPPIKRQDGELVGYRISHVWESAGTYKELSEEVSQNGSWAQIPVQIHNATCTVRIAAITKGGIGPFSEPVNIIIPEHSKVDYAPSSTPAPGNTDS

T5: human MerTK (human, UniProt Q12866 26-499)
T5 construct: also called HuMER
T5 sequence: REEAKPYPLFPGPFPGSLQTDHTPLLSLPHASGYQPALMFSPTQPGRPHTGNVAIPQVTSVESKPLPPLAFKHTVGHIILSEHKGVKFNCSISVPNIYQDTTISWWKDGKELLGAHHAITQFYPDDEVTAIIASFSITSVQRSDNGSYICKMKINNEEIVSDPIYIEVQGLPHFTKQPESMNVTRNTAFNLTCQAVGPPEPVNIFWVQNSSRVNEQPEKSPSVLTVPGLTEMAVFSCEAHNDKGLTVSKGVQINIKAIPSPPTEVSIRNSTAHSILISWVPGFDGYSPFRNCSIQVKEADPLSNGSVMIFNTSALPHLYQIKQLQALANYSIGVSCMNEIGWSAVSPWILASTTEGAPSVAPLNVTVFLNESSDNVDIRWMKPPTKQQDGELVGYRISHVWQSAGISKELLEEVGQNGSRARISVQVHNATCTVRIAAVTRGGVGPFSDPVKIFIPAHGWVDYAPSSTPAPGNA

T6: HuMER (R26-A499) (human, UniProt Q12866 26-499)
T6 construct: Extracellular domain with both Ig-like and both fibronectin-like domains; also called human MerTK extracellular domain
T6 sequence: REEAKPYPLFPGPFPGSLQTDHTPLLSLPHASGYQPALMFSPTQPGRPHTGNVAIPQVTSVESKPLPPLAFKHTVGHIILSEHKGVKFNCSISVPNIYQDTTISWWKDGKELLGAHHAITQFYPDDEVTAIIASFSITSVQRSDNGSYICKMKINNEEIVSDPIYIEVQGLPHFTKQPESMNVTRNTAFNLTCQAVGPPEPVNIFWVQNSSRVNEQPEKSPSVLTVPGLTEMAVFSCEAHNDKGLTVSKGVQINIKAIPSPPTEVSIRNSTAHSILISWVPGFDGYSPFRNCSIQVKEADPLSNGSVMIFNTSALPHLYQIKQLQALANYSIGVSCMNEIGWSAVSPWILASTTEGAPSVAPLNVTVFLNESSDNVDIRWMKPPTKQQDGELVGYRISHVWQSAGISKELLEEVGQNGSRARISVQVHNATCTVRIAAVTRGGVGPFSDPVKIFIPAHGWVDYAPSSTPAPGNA

T7: MuMER (E23-S496) (mouse, UniProt Q60805 23-496)
T7 construct: range 23-496; also called mouse MerTK extracellular domain
T7 sequence (looked up): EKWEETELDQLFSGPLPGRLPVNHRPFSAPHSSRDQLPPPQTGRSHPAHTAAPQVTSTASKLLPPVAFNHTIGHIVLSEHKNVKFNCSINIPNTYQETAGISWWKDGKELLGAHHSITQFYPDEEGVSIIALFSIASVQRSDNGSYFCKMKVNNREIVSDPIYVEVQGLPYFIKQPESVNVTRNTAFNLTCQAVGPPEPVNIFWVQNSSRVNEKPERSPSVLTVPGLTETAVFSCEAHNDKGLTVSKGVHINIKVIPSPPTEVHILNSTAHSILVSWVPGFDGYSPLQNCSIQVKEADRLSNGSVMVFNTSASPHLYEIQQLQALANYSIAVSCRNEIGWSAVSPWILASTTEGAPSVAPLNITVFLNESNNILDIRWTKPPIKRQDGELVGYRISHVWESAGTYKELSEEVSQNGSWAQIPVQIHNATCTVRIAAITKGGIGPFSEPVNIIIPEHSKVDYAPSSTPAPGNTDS

B1: h10C3.v14 (antibody, V domains shown)
VH: EVQLVESGGGLVQPGGSLRLSCAASGFSLSGYTMGWVRQAPGKGLEYIGVISSGGTTYYTNWAKGRFTISKDNSKNTLYLQMGSLRAEDMAVYYCARVAFTAYGGGGFPTLHRLDLWGQGTLVTVSS
VL: DQVLTQSPDSLAVSLGERATINCQSSESVYNNDYLAWYQQKPGQPPKLLIYSASTLASGVPDRFSGSGSGTDFTLTISSLQAEDVAVYYCAGGYLGNNVFGGGTKVEIK
notes: Humanized, human IgG1; also called 10C3 Humanized polished mAb
B2: Rbt9E3.FN (antibody, V domains shown)
VH: QSVEESGGRLVTPGTPLTLTCTVSGFSLSSNAMSWVRQAPGKGLEWIGIISSSGSTYSASWAKGRFTISKTSTTMDLKITSPTTEDTATYFCARVGFFVGYGAYDYGIIHRLDLWGQGTLVTVSS
VL: AAVLTQTPSPVSAAVGGTVSISCQSSKSIYNNNWLSWYQQKPGQPPKLLIYDASDLASGVPSRFEGSGSGTEFTLTISDLECDDAATYYCAGGYSGDSDYAFGGGTEVVVK
notes: Recombinant rabbit monoclonal antibody, Expi293, protein A purified
B3: Rbt10F7 (antibody, V domains shown)
VH: QSVEESGGRLVTPGTPLTLTCTVSGFSLSGYAMSWVRQAPGKGLEYIGVISSSGSSYYPSWAKGRFTISKTSTTVDLQITSPTTEDTATYFCARVQFYVGYAVYGYGIIDRLDLWGQGTLVTVSS
VL: AAVLTQTPSPVSATMGGTVSISCQSSKSVYNNNWLSWYQQKPGQPPKLLIYRASTLESGVPSRFKGSGSGTQFTLTISDVHCDDAATYFCAGGYSSSSSANAFGGGTEVVVK
notes: as for B2

Assays:
[1] = target: T1, human MerTK on human macrophages; assay: cell-based or functional assay
[2] = target: T2, cynomolgus monkey MerTK; assay: SPR BIAcore T200, Ab captured, 37C
Procedure: (§1) All binding affinity determinations were obtained using Surface Plasmon Resonance (SPR) measurements from a BIAcore™-T200 instrument. Briefly, each rabbit or humanized antibody was captured to achieve approximately 100 RU (Response Units). Then, 3-fold serial dilutions of MerTK from various species (0.4 nM to 100 nM) diluted in HBS-EP buffer (0.01M HEPES pH 7.4, 0.15M NaCl, 3 mM EDTA and 0.05% v/v surfactant P20) was injected into the BIAcore™-T200 instrument at 25° C. or 37° C. with a flow rate of 30 μl/min. Association rates (kₒₙ) and dissociation rates (koff) were calculated using a simple one-to-one Langmuir binding model (BIAcore T200 evaluation software version 2.0). The equilibrium dissociation constant (KD) was calculated as the ratio koff/kₒₙ.

[3] = target: T3, rat MerTK; assay: SPR BIAcore T200, Ab captured, 37C
Procedure: as §1

[4] = target: T4, mouse MerTK; assay: SPR BIAcore T200, Ab captured, 37C
Procedure: as §1

[5] = target: T5, human MerTK; assay: SPR BIAcore T200, Ab captured, 37C
Procedure: as §1

[6] = target: T6, HuMER (R26-A499); assay: SPR BIAcore T200, Ab captured, 25C
Procedure: (§2) Binding affinity determinations were obtained using Surface Plasmon Resonance (SRP) measurements from a BIAcore™-T200 instrument. Briefly, each rabbit antibody was captured to achieve approximately 100 RU (Response Units). Then, 3-fold serial dilutions of the various MerTK domains (0.4 nM to 100 nM) diluted in HBS-EP buffer (0.01M HEPES pH 7.4, 0.15M NaCl, 3 mM EDTA and 0.05% v/v surfactant P20) was injected into the BIAcore™-T200 instrument at 25° C. or 37° C. with a flow rate of 30 μl/min. Association rates (kₒₙ) and dissociation rates (koff) were calculated using a simple one-to-one Langmuir binding model (BIAcore T200 evaluation software version 2.0). The equilibrium dissociation constant (KD) was calculated as the ratio koff/kₒₙ.
(§3) Antibody epitope determination was assessed by BIAcore analysis for rabbit antibodies binding against both the human and mouse MerTK extracellular domain (HuMER R26-A499 and MuMER E23-S496), Ig1&2 domain, Ig1-only domain, and Ig2-only domain (TABLE 18). Human MerTK and its domains are shown in light gray, while mouse MerTK and its domains are shown in dark gray.

[7] = target: T7, MuMER (E23-S496); assay: SPR BIAcore T200, Ab captured, 25C
Procedure: as §2, §3

[8] = target: T2, cynomolgus monkey MerTK; assay: SPR BIAcore T200, Ab captured, 25C
Procedure: as §1

[9] = target: T4, mouse MerTK; assay: SPR BIAcore T200, Ab captured, 25C
Procedure: as §1

[10] = target: T5, human MerTK; assay: SPR BIAcore T200, Ab captured, 25C
Procedure: as §1

Binder	IC50 (nM), efferocytosis by human macrophages, Average (3 Donors) [1] [nM]	IC50 (nM), efferocytosis by human macrophages, Donor A [1] [nM]	IC50 (nM), efferocytosis by human macrophages, Donor B [1] [nM]	IC50 (nM), efferocytosis by human macrophages, Donor C [1] [nM]	Max Inhibition (%), efferocytosis by human macrophages, Average (3 Donors) [1] [%]	Max Inhibition (%), efferocytosis by human macrophages, Donor A [1] [%]	Max Inhibition (%), efferocytosis by human macrophages, Donor B [1] [%]	Max Inhibition (%), efferocytosis by human macrophages, Donor C [1] [%]	Kd [2] [nM]	Kd [3] [nM]	Kd [4] [nM]	Kd [5] [nM]	Kd [6] [nM]	Kd [7] [nM]	Kd [8] [nM]	Kd [9] [nM]	Kd [10] [nM]
B1	0.95	0.52	1.2	1.2	61	64	58	62	3.2	2.4	0.9	6.9	–	–	–	–	–
B2	–	–	–	–	–	–	–	–	2.5	1.7	0.6	5.1	2.6	0.6	2.5	0.6	2.6
B3	–	–	–	–	–	–	–	–	5.1	5.8	2.4	10.9	7	4.1	4.7	4.1	7
